Measurements published in a protein production outcome set (Wang et al. 2014).

Assay: label from the status in PepcDB records
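Note: failed if final PepcDB status was selected cloned or expressed and not failed if soluble or beyond.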

## MTSSEQPRTYWLEHAWLGTHVEPGVALDVRDGRITAVNQGVATPPPGAGILRGLTLPGLANAHSHAFHRALRGTVQVGSGTFWTWREVMYSVADRLTPDTYHALARAVYAEMALAGITAVGEFHYVHHAPGGTPYADPNAMGEALIEAAAEAGVRITLLDTCYLSSGFGEPPNTHQRRFSDGTADAWAERCSVLKERDHARIGAAIHSVRAVPADQLATVAQWAEERRAPLHVHLSEQTAENDACRQAHGRTPTRLLADHGVLGARTTGVHNTHLTDEDIALLGGSRTGTCMCLTTERDLADGIGPAAALQRAGSPLSLGSDSHAVVDLLEEARAMELNERLRTRARGHWTAAALLRAATADGHAALGWDDTGRIEAGARADLATIALDSVRTAGPLPRLGAETAVFAATAADVRHTVVGGRHVVRDGAHTLVPDVPQALARAVEALRA
  protein production: failed

## MNFLVIGSSLAFLLYILATLAIVTRLFHPKGPNITLVLSLATAAIIVHGFNDGLLFFSQDTINFNLPNVISLVSLIITIAVTLVSLRFKVNLLLPVIYGFTGLWQLVILFIPPIDSIPLVVEKVILLSHISFALIAYCVLIIATLYAFQVTYINLKLKSKNLTAVAHLPPLMQVEKQLFSILTVGTAILFISQIIGFVFLDGFLAKENAHKTILSLLSFAIYGLILWGHFEKGWRGHKVLVLMVSASALLTLAYFGSRFVKEFIL
  protein production: failed

## MERDQHIRIIYKLIIVLLVLLIIYVVVQLADLWVPFVYVLKRLLIPLGLAAIITYLFHPLIEAMHRRGMGRGLAVLLVFGAMIALLVCFAVVGAPYVLQQIEELTTSFPTVMKDVEGTVSKMEWQIQQLPHPFHNQAENWLNHLGKKAGNLLGQMERVIVVLIQSMVLLITVPFLVLYFLKDFDLIERAAWYVTPRKWRPSLKRYVRDVDRSFGRYIRGQLLVALSVAVVSMMALWLIGVPYPILLGGFIGATNIIPYFGAFIGAVPALVFAYFESWPVLLATAIALFLLQQLEGNVLSPLIVGHSLHLHPITIILALLVGVEVGGVIGLILAVPILAVLKVTFIHLRLHVSKVDREV
  protein production: failed

## MSHTKPSIAILGAGRVGSSLARSAVAAGYEVKVAGSGAVDKIALTAEILMPGAVPSTADQAVKDADIVFLAVPLHKFRSVNPATLEGKIVIDTMNHWVPVNGELEEIDQDPRSTSEIIAEFFAGSTMVKSFNHIGYHEIEQDAGTGRAIAYATDDVDAGAQVAQLIKSFGFVPLNIGALENGRILEPGQEAFGAHLNKDSRLELVNQR
  protein production: failed

## SMLSRAKPAVGGESPHTDKRKKKGRKIPKLEDLLSQRDFTGAITLLEFKRHVGEQEDDTNLWIGYCAFHLGDYKRALEEYENATKEENCNPEVWVNLACTYFFLGMYKQAEAAGFKAPKSRLQNRLLFHLAHKFNDEKKLMNFHQNLQDIKEDQLSLASNSEIHLPLPPECWD
  protein production: failed

## MNTPSRTHLVIIPSYNPGPKVYETVQAARRYWNPVWVVVDGSTDGTWEGLLKLSAEDSGLVVLGMPANRGKGAAVLRGLLTSRRKGFTHALVMDSDGQHPADRIPEFMARSQEEPDAMILGVPVFDDSAPSLRVKGRRISNWWANLETLWCGIGDSLFGFGVYPIQALCVIMQDHQWMRRFDFDPEAAVRLCWAGIRPVNLPVPVYYPKPEEGGTSHFHYWRDNALLTWMHVRLMFGFLARLPILLARIVRRPEILEHHHHHH
  protein production: failed

## MFIHVGSDKVLVKFIVSKFIKDYSNISNKKVRENYGILSSIMGLIVNLILFVIELSIGIFINSIAVIADAFHNLADVSASVITLIGFKLSNKPADKEHPFGHGRVEYLSALLVSAIILLVGVEFIKTSFLRILSPEPVSFNLISFIIMLIAIPLKLWLSLFNKNIGKKINSSALKASGADALNDVYILSSVILSLLVSAFSTISIDGYVGVLIGALIIWSAVNLMKDTIDPLLGQAPDPNLVKSIKKMALKCDVILGVHDLIIHNYGPGRTMISFHAEVPYNIPIMTLHSKIDETEKRISEELDIFVVIHMDPLLIGSPEVSEAKRYVSKILKDFPSVQSFHDFRIVGDGEDKKLIFDIVVPFDVDISEKKLSKLGDDIKSEIIRRHPHYDCVITVDRDYSGI
  protein production: failed

## MTSSMLFNITTFTYLVSMLAFFAFLASRNRHLGMAGSLISYFGFFVHTAAILLRWKESYDIGHGHAPLSNLYESVVFFAWTIVLIFGIIDLKYKYRVVGAFVMPFALLGMAWAQLTLNSGIEPLVPALQSNWLLYHVVTCFLGYAAFAVACGISIMYLIKAGKEDSSQSAQAGGIISMFPPTKILDDLNYKAIMIGFPLLTLGIITGAAWANYAWGTYWSWDPKETWSLIVWFVYAAFLHARFTRGWVGKRAAILSIVGFAATIFCYLGVNLLLSGLHSYGGG
  protein production: failed

## MNARVHQPVHTAQHAPSYYAATLNRRIECPPLAGEEQADVCVVGGGFSGVNTALELAQRGFSVVLLEAHQIGWGASGRNGGQLIRGVGHDVEQFLPVIGADGVKALKLMGLEAVEIVRRRVEQYAIDCDLRWGYCDLANKPGDYQGFREDMEELQALGYRHEMRLVPAAEMRSVIGSDRYVGGLVDMGSGHLHPLNLVLGEAAAAQSLGVRLFERSTVMRIDYGTEVQVHTATGKVRAKTLVLGCNAYMNDLNPLLGGKVLPAGSYVIATEPLDEKLARQLLPQNMAVCDQRVALDYYRLSADNRLLFGGACHYSGRDPSDIAAYMRPKMLEVFPQLANVRIDYQWGGMIGIGANRLPQIGRLPGQPNVYFAQAYSGHGVNATHLAGQLLAEAIGGQQSDGFDLFAKVPHITFPGGKLLRSPLLALGMAWY
  protein production: failed

## MATEPEAAEPVVPSLVDRYFTRWYKPDVKGKFCEDHCILQHSNRICVITLAESHPVLQSGKTIKSISYQISTNCSRLQNKVSGKFKRGAQFLTELAPLCKIYCSDGEEYTVSSCVRGRLMEVNENILHKPSILQEKPSTEGYIAVVLPKFEESKSITEGLLTQKQYEEVMVKRINATTATS
  protein production: failed

## MKTSVKFETIFPLTTAPLIQCITNEITCESMANALLYIDAKPIMADDPREFPQMFQQTSALVLNLGHLSQEREQSLLAASDYARQVNKLTVVDLVGYGASDIRNEVGEKLVHNQPTVVKGNLSEMRTFCQLVSHGRGVDGSPLDQSEEAIEELIQALRQQTQKFPQTVFLATGIQDVLVSQEQVIVLQNGVPELDCFTGTGDLVGALVAALLGEGNAPMTAAVAAVSYFNLCGEKAKTKSQGLADFRQNTLNQLSLLMKEKDWFEAVKGRVL
  protein production: not failed

## MFEGQPKGLYALALANTGERFGYYTMLAIFTLFLQAKFGYTAAETSTIFGCFLAAVYFIPFFGGILADKFGYGKMVTMGIVVMFIGYALLAIPTSDNSGKIMMFGALALIACGTGLFKGNLQVMVGNLYDAPEYSSKRDTAFSIFYMAINIGAMYAPTAATKVTNYMLGKAGLSYVPQIPSLAHQYLDGTITPANQATLESLQAAQNFTGDIATFCTTYIDKLSEAYNYGFGVACVSLIISMLIYVAFRSTFKHADYNSKQAKPANVVEEKLTPEQTKQRIVALLLVFAVVIFFWMAFHQNGLTLTFFARDYTAQEVTGLDRLGFNIVNLTFLLIVIYGLFSLFQGKTGKSKTIAGVVVMVALLCLGWSYTSMDPTINILPQIFQQFNPFFVIALTPVSLAVFGYLARKGKEPSAPRKIGIGMMIAVCGFLIMAIGSIGLPTPDALAASGIEKDALVSPNWLISTYLVLTFAELFLSPMGISFVSKVAPPKYKGMMMGGWFAATAIGNYLVAIIGYLWGGMQLWMVWSVLIVCCLLAALFIFSIMKKLEKVA
  protein production: failed

## KKGRFRERYSTRILDALPDMLTVFDHNANIVELASSPTTNHVEGTTSDSIINSNVKDIVPEEAYESVRHNMDKVIHTGKSSTAEHSLMLDGVLHHYENRIFPLDDQYLLCMCRDVS
  protein production: failed

## MRLLISLIAGALFGGGLFVSGMTDTRKVQGWLDVFGDWDPTLAFVMGGAILPMLLAWRLTEGRKPLAGGSFPALPRPEMDHRLITGSVLFGMGWGLAGLCPGPAIASLSYGGVGGLIFLVAMLAGMAVAPRVGTQLDRLAATA
  protein production: failed

## MSEFRLTQISDTHLGRRFPGLIANFHRVCEHIDADRPDLVINTGDVSFDGPTSRDDVVFAKGLHDALPVTCRYLPGNHDIGDNPTAIGPAPKPPVSEAYRQQFRDIIGEDHWSFEAAGWCFIGLNTLVMNSGLAFEAAQFDWLTQEIARTNGRPVALFLHKPVFLNLPDDPETPETSIRYVPQPARARLIEMFARVDLRLIASGHVHQRRDFTFRHTRHVWAPSVGFKINDQRQDRIAIKETGLVEYRFRGDSLEVRHLRAAGQIDIDIEEVLLQMGGEH
  protein production: failed

## MGLCVSVNRNEYVSSSTTAKIVTINGDLREYDVPVLASQVLESESTSSSSSSSSSSYFLCNSDSLYYDDFIPAIESDEILQANQIYFVLPISKRQYRLSASDMAALAVKASVAIEKAAGKKNRRRRSGRISPVVTLNQANDNRIAAVNNRIGGEATNMMMQKGKLPNRTTPFKDTNGYSRSGSVRKLKRYTSGRAKLAVRSFRLRLSTIYEGSSFN
  protein production: failed

## MIPPLQLSPLALVALLSLAAWAVVLLTRRRFWRCDQRLGQNTMAPGAAPAVVAVIPARDEAHTIGQTVRSLLNQSYPGRLVVVVVDDSSSDGTADAARAGAASVYDGPSRLIVVPGKPLEAGWSGKLWAVHQGLEVAAQAVPEARYVLLTDADIEHIPGNIARLVGKCERDGLVMASLMVKLRCESAWEHLLIPAFIFFFQKLYPFPLVNDPDRRVAGAAGGCILARRETLDAIGGVAAVRGALIDDCALAALLKEKGPIWLGLAGRTRSLRPNDELGDVWRMVARTAYVQLHHSPLRLIGAVIGMTLLYLVPPVSLIVGILSADFPAAVAGLVGWIGLAIIYRPTLHLYRRPPMAGLALPLAALLYTLMTIDSARRHYVGRGGEWKGRTYSGDASAGADPGPRSPAELAAHVEAITKASGTSFYGAMRILPRERRLAMYAIYAFCRVVDDIADGTAPEAEKRAELARWRDEIEALYARGGKGPEHPVARALDGPIRRFALPREDFLAVIEGMELDAGPRVRIRDITELEQYCDWVACAVGRLSNRIFGADPALSDDVARHTGLALQLTNILRDVVEDAERDRLYLPLSRLRAHGLKTTKDIDAVLVHPATAKVCAELASKAAAEFAEADRAQAACDRKTMRPAIIMKEVYRRIHAALMVRGWARLGEPVKVSRLTKLGIALRHGWL
  protein production: failed

## VMRLVTLRSHDQYNTTIYAMDDRYRGVFGRRDVLFMNEQDMAAQGLEHGDRVDIHTALPGSALTLEDITVVAYGIAPGTVGAYYPEANVLVPLNYLDEESGTPSYKSVPVRLTLRSKEIRPLVGGR
  protein production: not failed

## MFVGVDHAGRDWSWKEPGSTKACRNFMITLFAEWALPATTGQASGRRAMARKFMVPALAVLAFAIAAPAFAQVPANIAKAVADPSRPAAETARDAARRPGEILAMAELKPGDTVVDYIMGGGYFTRIISGAVGPQGVVYAYQPAEFIRFAARYGESLKAVTAALANSKPLDGPITALDLPDNVDAVITVQNYHDMHLKPFPTDTAAKANAEIFKSLKPGGVFLVIDHSAIAGSGITAADTLHRIDIAAVKQEVEAAGFKLEAESGLLADPADARTINVFDPAIRGKTDQFILKFRKPK
  protein production: failed

## EDAWMGTHPKYLEMMELDIGDATQVYVAFLVYLDLMESKSWHEVNCVGLPELQLICLVGTEIEGEGLQTVVPTPITASLSHNRIREILKASRKLQGDPDLPMSFTLAIVESDSTIVYYKLTD
  protein production: not failed

## MAETIISLLSPTLDIKSPYYFNPDYLHQFNMHTNTAIDKLSEAKDNYAIWKLRFFDLLQFTNKTGFIDGTLPKPDPSSPYYEPWKQCNAIVLHWLSNTVTDTLQNHVLQAETVHKAWEDLRRIFVPCIDFKIYELRQRLATLRQGGDSVAEYFGKLSKAWLELKAYDPVQECKCGGCDCESEKRATEAREKEQRYAFLMGLNKEFDYVKMKVMHKKIPPSVYQAYEMVVYSEAMMKWKMGGRI
  protein production: failed
